{"source": "paper PMC10783490", "about": "“Biochemical and cellular insights into the Baz2B protein, a non-catalytic subunit of the chromatin remodeling complex” (Nucleic Acids Research, 2023)", "key": {"TAM-AT1-AT2 Baz2B R765E": {"molecular_target": "T1, TAM-AT1-AT2 Baz2B R765E (Homo sapiens, UniProt Q9UIF8 721-884, R765E)", "T1 sequence": "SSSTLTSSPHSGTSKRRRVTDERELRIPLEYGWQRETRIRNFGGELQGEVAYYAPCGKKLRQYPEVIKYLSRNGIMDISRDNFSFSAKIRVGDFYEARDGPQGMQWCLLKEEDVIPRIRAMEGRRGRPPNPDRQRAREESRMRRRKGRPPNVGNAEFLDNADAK", "experiment": "EMSA; EMSA: 20 mM HEPES pH 7.5, 30 mM KCl, 1 mM EDTA, 10 mM (NH4)2SO4, 1 mM DTT, 4 C, 10 nM probe; MST: same plus 0.1 ug/ml BSA, 5 nM probe, 25 C; GST-AT-hook and bromodomain EMSA as in cited refs", "conditions": "protein: recombinant; tags: His6; blunt"}, "TAM-AT1-AT2 Baz2B Q767A": {"molecular_target": "T2, TAM-AT1-AT2 Baz2B Q767A (Homo sapiens, UniProt Q9UIF8 721-884, Q767A)", "T2 sequence": "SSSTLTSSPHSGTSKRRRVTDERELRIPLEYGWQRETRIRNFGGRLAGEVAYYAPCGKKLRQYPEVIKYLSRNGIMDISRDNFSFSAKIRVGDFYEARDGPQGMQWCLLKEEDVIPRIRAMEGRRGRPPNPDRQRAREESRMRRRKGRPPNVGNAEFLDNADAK", "experiment": "EMSA; EMSA: 20 mM HEPES pH 7.5, 30 mM KCl, 1 mM EDTA, 10 mM (NH4)2SO4, 1 mM DTT, 4 C, 10 nM probe; MST: same plus 0.1 ug/ml BSA, 5 nM probe, 25 C; GST-AT-hook and bromodomain EMSA as in cited refs", "conditions": "protein: recombinant; tags: His6; blunt"}, "TAM-AT1-AT2 Baz2B R781E": {"molecular_target": "T3, TAM-AT1-AT2 Baz2B R781E (Homo sapiens, UniProt Q9UIF8 721-884, R781E)", "T3 sequence": "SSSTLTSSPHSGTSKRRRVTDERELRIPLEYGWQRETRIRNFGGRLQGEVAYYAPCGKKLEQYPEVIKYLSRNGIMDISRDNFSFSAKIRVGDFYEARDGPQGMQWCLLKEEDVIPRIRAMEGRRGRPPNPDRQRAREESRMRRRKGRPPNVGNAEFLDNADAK", "experiment": "EMSA; EMSA: 20 mM HEPES pH 7.5, 30 mM KCl, 1 mM EDTA, 10 mM (NH4)2SO4, 1 mM DTT, 4 C, 10 nM probe; MST: same plus 0.1 ug/ml BSA, 5 nM probe, 25 C; GST-AT-hook and bromodomain EMSA as in cited refs", "conditions": "protein: recombinant; tags: His6; blunt"}, "TAM-AT1-AT2 Baz2B [1]": {"molecular_target": "T4, TAM-AT1-AT2 Baz2B (Homo sapiens, UniProt Q9UIF8 721-884)", "T4 sequence": "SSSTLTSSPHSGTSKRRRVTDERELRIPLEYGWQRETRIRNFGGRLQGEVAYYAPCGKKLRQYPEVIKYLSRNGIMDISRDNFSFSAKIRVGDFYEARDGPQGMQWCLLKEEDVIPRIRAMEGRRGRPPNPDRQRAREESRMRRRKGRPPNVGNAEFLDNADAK", "experiment": "EMSA; EMSA: 20 mM HEPES pH 7.5, 30 mM KCl, 1 mM EDTA, 10 mM (NH4)2SO4, 1 mM DTT, 4 C, 10 nM probe; MST: same plus 0.1 ug/ml BSA, 5 nM probe, 25 C; GST-AT-hook and bromodomain EMSA as in cited refs", "conditions": "protein: recombinant; tags: His6; blunt"}, "TAM-AT1-AT2 Baz2B R837E": {"molecular_target": "T5, TAM-AT1-AT2 Baz2B R837E (Homo sapiens, UniProt Q9UIF8 721-884, R837E)", "T5 sequence": "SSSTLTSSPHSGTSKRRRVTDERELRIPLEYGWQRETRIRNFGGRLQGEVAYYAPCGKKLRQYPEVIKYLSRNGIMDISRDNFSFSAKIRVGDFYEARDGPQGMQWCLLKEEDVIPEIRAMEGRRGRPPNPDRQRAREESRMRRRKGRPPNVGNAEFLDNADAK", "experiment": "EMSA; EMSA: 20 mM HEPES pH 7.5, 30 mM KCl, 1 mM EDTA, 10 mM (NH4)2SO4, 1 mM DTT, 4 C, 10 nM probe; MST: same plus 0.1 ug/ml BSA, 5 nM probe, 25 C; GST-AT-hook and bromodomain EMSA as in cited refs", "conditions": "protein: recombinant; tags: His6; blunt"}, "TAM-AT1-AT2 Baz2B L766A": {"molecular_target": "T6, TAM-AT1-AT2 Baz2B L766A (Homo sapiens, UniProt Q9UIF8 721-884, L766A)", "T6 sequence": "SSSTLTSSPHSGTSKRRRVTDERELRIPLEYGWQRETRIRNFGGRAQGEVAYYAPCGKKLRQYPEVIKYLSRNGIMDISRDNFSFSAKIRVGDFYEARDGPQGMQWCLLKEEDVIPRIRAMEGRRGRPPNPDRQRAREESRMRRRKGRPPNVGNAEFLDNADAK", "experiment": "EMSA; EMSA: 20 mM HEPES pH 7.5, 30 mM KCl, 1 mM EDTA, 10 mM (NH4)2SO4, 1 mM DTT, 4 C, 10 nM probe; MST: same plus 0.1 ug/ml BSA, 5 nM probe, 25 C; GST-AT-hook and bromodomain EMSA as in cited refs", "conditions": "protein: recombinant; tags: His6; blunt"}, "TAM Baz2B": {"molecular_target": "T7, TAM Baz2B (Homo sapiens, UniProt Q9UIF8 721-843)", "T7 sequence": "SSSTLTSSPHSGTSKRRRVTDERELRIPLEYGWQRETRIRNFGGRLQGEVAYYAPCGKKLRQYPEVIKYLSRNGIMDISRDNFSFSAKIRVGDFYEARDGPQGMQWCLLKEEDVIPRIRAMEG", "experiment": "EMSA; EMSA: 20 mM HEPES pH 7.5, 30 mM KCl, 1 mM EDTA, 10 mM (NH4)2SO4, 1 mM DTT, 4 C, 10 nM probe; MST: same plus 0.1 ug/ml BSA, 5 nM probe, 25 C; GST-AT-hook and bromodomain EMSA as in cited refs", "conditions": "protein: recombinant; tags: His6; blunt"}, "TAM-AT1-AT2 Baz2B R760E": {"molecular_target": "T8, TAM-AT1-AT2 Baz2B R760E (Homo sapiens, UniProt Q9UIF8 721-884, R760E)", "T8 sequence": "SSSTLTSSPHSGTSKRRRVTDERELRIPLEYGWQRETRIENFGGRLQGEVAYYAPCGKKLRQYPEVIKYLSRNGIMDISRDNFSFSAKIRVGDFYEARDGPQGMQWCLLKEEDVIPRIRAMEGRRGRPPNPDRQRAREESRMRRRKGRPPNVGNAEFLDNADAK", "experiment": "EMSA; EMSA: 20 mM HEPES pH 7.5, 30 mM KCl, 1 mM EDTA, 10 mM (NH4)2SO4, 1 mM DTT, 4 C, 10 nM probe; MST: same plus 0.1 ug/ml BSA, 5 nM probe, 25 C; GST-AT-hook and bromodomain EMSA as in cited refs", "conditions": "protein: recombinant; tags: His6; blunt"}, "TAM-AT1-AT2 Baz2B [2]": {"molecular_target": "T4, TAM-AT1-AT2 Baz2B", "experiment": "EMSA; mutant series; EMSA: 20 mM HEPES pH 7.5, 30 mM KCl, 1 mM EDTA, 10 mM (NH4)2SO4, 1 mM DTT, 4 C, 10 nM probe; MST: same plus 0.1 ug/ml BSA, 5 nM probe, 25 C; GST-AT-hook and bromodomain EMSA as in cited refs", "conditions": "protein: recombinant; tags: His6; blunt"}, "GST-AT1-AT2 Baz2A": {"molecular_target": "T9, GST-AT1-AT2 Baz2A (UniProt Q91YE5 641-674)", "T9 chain": "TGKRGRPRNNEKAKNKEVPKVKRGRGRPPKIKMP", "experiment": "EMSA; 1.25 uM DNA, 3.6 or 14.4 uM protein; EMSA: 20 mM HEPES pH 7.5, 30 mM KCl, 1 mM EDTA, 10 mM (NH4)2SO4, 1 mM DTT, 4 C, 10 nM probe; MST: same plus 0.1 ug/ml BSA, 5 nM probe, 25 C; GST-AT-hook and bromodomain EMSA as in cited refs", "conditions": "protein: recombinant; tags: GST; label: none (SybrSafe); blunt"}, "BRD Baz2B": {"molecular_target": "T10, BRD Baz2B (Homo sapiens, UniProt Q9UIF8 2060-2164)", "T10 sequence": "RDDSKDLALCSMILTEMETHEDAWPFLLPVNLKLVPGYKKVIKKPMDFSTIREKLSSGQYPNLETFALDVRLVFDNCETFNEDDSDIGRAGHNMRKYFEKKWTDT", "experiment": "EMSA; up to 112 uM, one pot; EMSA: 20 mM HEPES pH 7.5, 30 mM KCl, 1 mM EDTA, 10 mM (NH4)2SO4, 1 mM DTT, 4 C, 10 nM probe; MST: same plus 0.1 ug/ml BSA, 5 nM probe, 25 C; GST-AT-hook and bromodomain EMSA as in cited refs", "conditions": "protein: recombinant, tags: His6"}, "BRD Brg1 [3]": {"molecular_target": "T11, BRD Brg1 (UniProt P51532 1453-1564)", "T11 sequence (P51532 1453-1564)": "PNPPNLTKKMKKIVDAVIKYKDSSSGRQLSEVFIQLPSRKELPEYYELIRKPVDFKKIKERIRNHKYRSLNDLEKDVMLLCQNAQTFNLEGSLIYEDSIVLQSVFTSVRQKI", "experiment": "EMSA; one pot with duplex and TFO; EMSA: 20 mM HEPES pH 7.5, 30 mM KCl, 1 mM EDTA, 10 mM (NH4)2SO4, 1 mM DTT, 4 C, 10 nM probe; MST: same plus 0.1 ug/ml BSA, 5 nM probe, 25 C; GST-AT-hook and bromodomain EMSA as in cited refs", "conditions": "protein: recombinant; tags: His6; triplex, third strand TFO"}, "BRD Brg1 [4]": {"molecular_target": "T11, BRD Brg1", "experiment": "EMSA; one pot with triplex and TFO; EMSA: 20 mM HEPES pH 7.5, 30 mM KCl, 1 mM EDTA, 10 mM (NH4)2SO4, 1 mM DTT, 4 C, 10 nM probe; MST: same plus 0.1 ug/ml BSA, 5 nM probe, 25 C; GST-AT-hook and bromodomain EMSA as in cited refs", "conditions": "protein: recombinant; tags: His6; blunt"}, "BRD Brg1 [5]": {"molecular_target": "T11, BRD Brg1", "experiment": "EMSA; one pot with triplex and duplex; EMSA: 20 mM HEPES pH 7.5, 30 mM KCl, 1 mM EDTA, 10 mM (NH4)2SO4, 1 mM DTT, 4 C, 10 nM probe; MST: same plus 0.1 ug/ml BSA, 5 nM probe, 25 C; GST-AT-hook and bromodomain EMSA as in cited refs", "conditions": "protein: recombinant; tags: His6"}}}
{"binder": "45 bp dsDNA FLP015/FLP016 (dsDNA) DNA 1: ATCAGTTCTCCGGGTTGTCAGGTCGACCAGTTGTTCCTTTGAGGT DNA 2: ACCTCAAAGGAACAACTGGTCGACCTGACAACCCGGAGAACTGAT", "values": [{"measurement": "Kd", "setting": "TAM-AT1-AT2 Baz2B R765E", "result": "30.8 ± 6.9", "unit": "nM"}, {"measurement": "Kd", "setting": "TAM-AT1-AT2 Baz2B Q767A", "result": "440 ± 256", "unit": "nM"}, {"measurement": "Kd", "setting": "TAM-AT1-AT2 Baz2B R781E", "result": "232 ± 101", "unit": "nM"}, {"measurement": "Kd", "setting": "TAM-AT1-AT2 Baz2B [1]", "result": 82.2, "unit": "nM"}, {"measurement": "Kd", "setting": "TAM-AT1-AT2 Baz2B R837E", "result": "108 ± 9.3", "unit": "nM"}, {"measurement": "Kd", "setting": "TAM-AT1-AT2 Baz2B L766A", "result": "98.1 ± 29.5", "unit": "nM"}, {"measurement": "Kd", "setting": "TAM Baz2B", "result": 468, "unit": "nM"}, {"measurement": "Kd", "setting": "TAM-AT1-AT2 Baz2B R760E", "result": "93.6 ± 38.2", "unit": "nM"}, {"measurement": "Kd", "setting": "TAM-AT1-AT2 Baz2B [2]", "result": "116 ± 50.9", "unit": "nM"}]}
{"binder": "rDNA enhancer (En dsDNA) (dsDNA) DNA 1: TGGATCTTTTTTTTTTTTTTTCTTTTTCCTCCA DNA 2: TGGAGGAAAAAGAAAAAAAAAAAAAAAGATCCA", "values": [{"measurement": "binding result", "setting": "GST-AT1-AT2 Baz2A", "result": "binds"}]}
{"binder": "DNA triplex En3_D + TFO #5 (structured_DNA) DNA 1: TCTTTTTTTTTTTTTTTCTTTTTTCCTCC DNA 2: GGAGGAAAAAAGAAAAAAAAAAAAAAAGA DNA 3: GGAGGAAAAAAGAAAAAAAAAAAAAAAGA", "values": [{"measurement": "binding result", "setting": "BRD Baz2B; triplex, third strand TFO", "result": "no binding"}, {"measurement": "binding result", "setting": "BRD Brg1 [3]", "result": "binds"}]}
{"binder": "En3_D 29 bp dsDNA (dsDNA) DNA 1: TCTTTTTTTTTTTTTTTCTTTTTTCCTCC DNA 2: GGAGGAAAAAAGAAAAAAAAAAAAAAAGA", "values": [{"measurement": "binding result", "setting": "BRD Baz2B; blunt", "result": "no binding"}, {"measurement": "binding result", "setting": "BRD Brg1 [4]", "result": "binds"}]}
{"binder": "GGAGGAAAAAAGAAAAAAAAAAAAAAAGA (ssDNA)", "note": "[TFO #5 (29 nt ssDNA)]", "values": [{"measurement": "binding result", "setting": "BRD Baz2B", "result": "no binding"}, {"measurement": "binding result", "setting": "BRD Brg1 [5]", "result": "no binding"}]}
